Test results published in patent US20240109963A1 (AB THERAPEUTICS, published 2024).

B1: Claudin 18.2-1B2/CD3 BsAb (BiSpecific-V1 structure) (bispecific antibody)
VHH-Fc: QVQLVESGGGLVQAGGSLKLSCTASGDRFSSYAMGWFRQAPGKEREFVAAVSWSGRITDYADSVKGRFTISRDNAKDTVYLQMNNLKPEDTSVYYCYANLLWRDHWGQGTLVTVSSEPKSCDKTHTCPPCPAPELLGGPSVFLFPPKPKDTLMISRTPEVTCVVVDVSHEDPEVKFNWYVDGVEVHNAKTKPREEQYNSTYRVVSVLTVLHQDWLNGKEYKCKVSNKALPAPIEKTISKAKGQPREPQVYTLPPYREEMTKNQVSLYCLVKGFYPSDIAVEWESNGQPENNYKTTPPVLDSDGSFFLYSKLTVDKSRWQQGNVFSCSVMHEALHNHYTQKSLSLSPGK
heavy: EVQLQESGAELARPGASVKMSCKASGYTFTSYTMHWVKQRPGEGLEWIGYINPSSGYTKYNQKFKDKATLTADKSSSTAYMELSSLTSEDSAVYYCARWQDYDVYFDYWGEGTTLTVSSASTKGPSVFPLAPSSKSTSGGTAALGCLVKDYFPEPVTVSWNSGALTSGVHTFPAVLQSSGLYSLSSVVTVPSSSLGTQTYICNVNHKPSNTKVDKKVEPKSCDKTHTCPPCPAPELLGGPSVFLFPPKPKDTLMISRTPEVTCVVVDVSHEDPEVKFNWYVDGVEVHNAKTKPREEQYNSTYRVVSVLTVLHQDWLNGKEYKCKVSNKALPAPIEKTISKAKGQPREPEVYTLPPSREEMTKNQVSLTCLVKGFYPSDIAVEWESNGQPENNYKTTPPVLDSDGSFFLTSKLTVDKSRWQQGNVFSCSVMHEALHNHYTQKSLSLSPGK
light: QIVLSQSPAILSASPGEKVTMTCRASSSVSYIHWFQQKPGSSPKPWIYATSNLASGVPVRFSGSGSGTSYSLTISRVEAEDAATYYCQQWTSNPPTFGGGTKLEIKRTVAAPSVFIFPPSDEQLKSGTASVVCLLNNFYPREAKVQWKVDNALQSGNSQESVTEQDSKDSTYSLSSTLTLSKADYEKHKVYACEVTHQGLSSPVTKSFNRGEC
B2: Claudin 18.2-3C2/CD3 BsAb (BiSpecific-V1 structure) (bispecific antibody)
VHH-Fc: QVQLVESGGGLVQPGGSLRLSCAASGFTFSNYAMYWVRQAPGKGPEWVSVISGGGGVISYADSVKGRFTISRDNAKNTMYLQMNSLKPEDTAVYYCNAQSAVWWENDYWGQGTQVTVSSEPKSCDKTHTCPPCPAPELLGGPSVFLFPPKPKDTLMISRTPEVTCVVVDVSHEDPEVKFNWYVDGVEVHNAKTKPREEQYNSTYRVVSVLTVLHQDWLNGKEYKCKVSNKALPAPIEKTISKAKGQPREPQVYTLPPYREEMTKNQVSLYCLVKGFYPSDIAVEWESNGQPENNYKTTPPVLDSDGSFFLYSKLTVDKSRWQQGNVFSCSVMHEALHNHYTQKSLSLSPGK
heavy: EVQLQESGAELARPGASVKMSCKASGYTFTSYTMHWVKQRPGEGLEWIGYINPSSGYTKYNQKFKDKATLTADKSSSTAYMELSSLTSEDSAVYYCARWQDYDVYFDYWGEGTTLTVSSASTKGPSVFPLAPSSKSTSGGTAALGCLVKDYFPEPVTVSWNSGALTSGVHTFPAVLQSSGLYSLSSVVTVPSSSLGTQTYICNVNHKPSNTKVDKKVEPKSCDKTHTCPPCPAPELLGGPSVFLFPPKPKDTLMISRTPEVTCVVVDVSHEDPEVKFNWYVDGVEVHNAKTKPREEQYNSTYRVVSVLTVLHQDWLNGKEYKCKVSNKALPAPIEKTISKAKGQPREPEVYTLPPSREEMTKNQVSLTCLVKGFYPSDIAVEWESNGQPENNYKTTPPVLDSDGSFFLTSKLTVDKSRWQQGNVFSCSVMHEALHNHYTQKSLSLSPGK
light: B1 light
notes: tested as unpurified culture supernatant
B3: Claudin 18.2-4G1/CD3 BsAb (BiSpecific-V1 structure) (bispecific antibody)
VHH-Fc: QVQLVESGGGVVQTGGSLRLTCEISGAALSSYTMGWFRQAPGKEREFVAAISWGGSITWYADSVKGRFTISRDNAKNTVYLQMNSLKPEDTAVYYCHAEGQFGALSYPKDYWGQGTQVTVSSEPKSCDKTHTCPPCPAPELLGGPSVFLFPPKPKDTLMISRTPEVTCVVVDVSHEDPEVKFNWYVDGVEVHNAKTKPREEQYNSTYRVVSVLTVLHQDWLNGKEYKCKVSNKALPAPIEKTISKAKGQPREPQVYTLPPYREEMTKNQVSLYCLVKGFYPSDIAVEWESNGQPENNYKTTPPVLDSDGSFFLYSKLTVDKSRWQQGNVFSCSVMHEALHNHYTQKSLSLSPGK
heavy: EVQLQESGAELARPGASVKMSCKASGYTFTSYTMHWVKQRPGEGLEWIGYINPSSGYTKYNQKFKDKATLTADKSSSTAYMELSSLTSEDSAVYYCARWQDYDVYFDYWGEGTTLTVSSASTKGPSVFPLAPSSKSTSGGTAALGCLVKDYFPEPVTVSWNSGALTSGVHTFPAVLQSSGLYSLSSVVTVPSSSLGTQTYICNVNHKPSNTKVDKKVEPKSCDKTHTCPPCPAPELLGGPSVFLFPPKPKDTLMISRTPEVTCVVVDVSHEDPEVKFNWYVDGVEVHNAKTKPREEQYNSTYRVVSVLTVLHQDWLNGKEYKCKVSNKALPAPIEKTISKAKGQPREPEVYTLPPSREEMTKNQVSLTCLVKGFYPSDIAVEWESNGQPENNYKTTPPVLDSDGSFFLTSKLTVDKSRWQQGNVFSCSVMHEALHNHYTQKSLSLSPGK
light: B1 light
notes: as for B2

Experiments:
[1] = biological target: T1, full-length human Claudin 18.2 on MIA PaCa-2 cells (MIA PaCa-2+ Claudin 18.2) (human, UniProt P56856-2 1-261); test: cell-based or functional assay
T1 sequence (looked up): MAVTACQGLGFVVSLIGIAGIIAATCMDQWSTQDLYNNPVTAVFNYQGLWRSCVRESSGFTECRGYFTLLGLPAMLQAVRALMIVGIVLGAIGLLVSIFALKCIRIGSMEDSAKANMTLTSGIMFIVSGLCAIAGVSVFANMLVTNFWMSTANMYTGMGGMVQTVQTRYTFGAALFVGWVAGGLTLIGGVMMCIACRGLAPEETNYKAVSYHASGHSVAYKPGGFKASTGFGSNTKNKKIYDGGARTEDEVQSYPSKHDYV

CD3 on Jurkat cells = biological target: T2, CD3 on Jurkat cells; test: flow cytometry on Jurkat cells, CD3 binding (T cell) (summary table)
T2 construct: whole, on cells; also called CD3+ Jurkat cells
T2 sequence (P07766 23-207, chain 1 of 3): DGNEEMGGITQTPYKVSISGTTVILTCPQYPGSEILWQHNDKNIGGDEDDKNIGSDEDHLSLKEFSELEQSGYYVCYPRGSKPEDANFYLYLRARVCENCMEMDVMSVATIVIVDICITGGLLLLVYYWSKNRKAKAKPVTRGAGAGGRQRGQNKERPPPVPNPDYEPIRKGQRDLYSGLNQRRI
T2 sequence (P09693 23-182, chain 2 of 3, further chain): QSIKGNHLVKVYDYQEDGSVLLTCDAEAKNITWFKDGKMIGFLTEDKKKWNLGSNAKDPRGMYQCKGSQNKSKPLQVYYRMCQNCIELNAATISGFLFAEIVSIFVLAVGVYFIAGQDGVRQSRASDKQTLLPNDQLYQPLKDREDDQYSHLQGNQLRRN
T2 sequence (P04234 22-171, chain 3 of 3, further chain): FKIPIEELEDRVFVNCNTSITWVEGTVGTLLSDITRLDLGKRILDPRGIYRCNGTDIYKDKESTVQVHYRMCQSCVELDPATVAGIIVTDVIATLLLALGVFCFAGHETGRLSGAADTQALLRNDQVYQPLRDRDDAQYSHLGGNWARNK

[2] = biological target: T3, Claudin 18.2 on CHO cells (CHO+ Claudin 18.2) (UniProt P56856-2 1-261); test: flow cytometry, unpurified supernatant on CHO+ Claudin 18.2 cells, FITC-positive cells
T3 construct: whole, on cells; also called CHO_18.2
T3 sequence (looked up): T1 sequence (looked up)
Procedure: To compare the half maximal effective concentration (EC50) of the lead BsAbs, 8.5×10⁴ cells/well of CHO+ Claudin 18.2 cells in 100 μl FACS buffer were seeded in a V-bottom 96-well plate. […] The final concentrations of the BsAbs were 10 μg/ml, 1 μg/ml, 100 ng/ml, 10 ng/ml, 1 ng/ml, 100 pg/ml, 10 pg/ml, and 1 pg/ml. After incubating the plate at RT for 45 minutes, the cells were washed twice with the FACS buffer and cell pellets were resuspended in 100 μl FACS buffer containing goat anti-human-FITC (1:200) for 30 minutes at RT in dark. Afterwards, the cells were washed twice with FACS buffer, and cell pellets were resuspended in 120 μl FACS buffer. The percentage of FITC-positive cells were analyzed by flow cytometry.

Binder	T cell activation EC50 (CD69-positive cells) [1] [µg/mL]	EC50 (CD3 on Jurkat cells) [µg/mL]	EC50 [2] [µg/mL]
B1	0.056	58.9	
B2			~0.013
B3			~0.006
